The results in this text go back to patent US20230220042A1 (SHANGHAI JIAO TONG UNIVERSITY SCHOOL OF MEDICINE, published 2023).

One assay addresses T1, FcγRI (human, UniProt P12314 16-292, biotin-labeled).
T1 construct: extracellular domain; Bought protein; also called CD64
In words: ELISA, coated antibody, biotin-FcγR.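 On Absorbance value: antibody coated at 2 µg/mL at 100 µL per well.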 Background: ELISA stands for enzyme-linked immunosorbent assay.

Another assay addresses T2, FcγRIIA^131H (human, UniProt P12318 34-217, biotin-labeled).
T2 construct: extracellular domain; Bought protein; also called RIIAH
T2 sequence (looked up): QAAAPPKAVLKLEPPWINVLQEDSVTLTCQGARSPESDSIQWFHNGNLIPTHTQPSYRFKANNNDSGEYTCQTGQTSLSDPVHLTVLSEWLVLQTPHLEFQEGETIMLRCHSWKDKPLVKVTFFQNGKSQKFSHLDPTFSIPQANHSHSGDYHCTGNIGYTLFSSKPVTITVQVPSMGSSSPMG
Kind of assay: ELISA, coated antibody, biotin-FcγR.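 On Absorbance value: antibody coated at 2 µg/mL at 100 µL per well.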

The target of another assay is T3, FcγRIIA^131R (human, UniProt P12318 34-217, biotin-labeled).
T3 construct: extracellular domain; Bought protein; also called RIIAR
T3 sequence (looked up): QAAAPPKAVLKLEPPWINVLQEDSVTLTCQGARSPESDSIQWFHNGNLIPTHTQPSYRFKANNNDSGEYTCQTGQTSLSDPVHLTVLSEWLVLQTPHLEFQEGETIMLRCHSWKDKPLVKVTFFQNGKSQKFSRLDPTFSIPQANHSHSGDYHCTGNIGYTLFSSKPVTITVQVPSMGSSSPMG
In words: ELISA, coated antibody, biotin-FcγR.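 On Absorbance value: antibody coated at 2 µg/mL at 100 µL per well.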

In assay [1] the target is T4, FcγRIIB (human, UniProt P31994 43-217, biotin-labeled).
T4 construct: extracellular domain; Bought protein; also called CD32b
T4 sequence (looked up): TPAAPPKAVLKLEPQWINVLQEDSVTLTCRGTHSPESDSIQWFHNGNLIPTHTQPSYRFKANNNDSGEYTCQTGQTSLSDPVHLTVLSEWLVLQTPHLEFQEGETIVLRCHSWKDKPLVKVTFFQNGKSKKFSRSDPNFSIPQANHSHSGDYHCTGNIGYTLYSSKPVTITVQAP
Kind of assay: ELISA, coated antibody, biotin-FcγR.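 On Absorbance value: antibody coated at 2 µg/mL at 100 µL per well.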

Another assay deals with T5, FcγRIIIA^158F (human, UniProt P08637 17-208, biotin-labeled).
T5 construct: extracellular domain; Bought protein; also called RIIIAF
T5 sequence (P08637 17-208): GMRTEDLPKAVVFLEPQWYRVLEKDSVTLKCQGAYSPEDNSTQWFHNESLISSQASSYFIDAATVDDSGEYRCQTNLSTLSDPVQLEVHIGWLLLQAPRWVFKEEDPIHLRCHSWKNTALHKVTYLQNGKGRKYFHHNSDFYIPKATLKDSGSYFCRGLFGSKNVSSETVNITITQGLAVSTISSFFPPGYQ
Kind of assay: ELISA, coated antibody, biotin-FcγR.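 On Absorbance value: antibody coated at 2 µg/mL at 100 µL per well.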

The target of a further assay is T6, FcγRIIIA^158V (human, UniProt P08637 17-208, biotin-labeled).
T6 construct: extracellular domain; Bought protein; also called RIIIAV; CD16a 158V
T6 sequence (P08637 17-208 F176V): as the sequence (P08637 17-208) above, with F160V counted along it
In words: ELISA, coated antibody, biotin-FcγR.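 On Absorbance value: antibody coated at 2 µg/mL at 100 µL per well.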

Assay [2] has as its target T4, FcγRIIB. Kind of assay: ELISA; relative affinity to FcγRIIB over that to FcγRIIA131R. The procedure: One hundred μl (2 μg/mL) of antibody or mutant thereof were added to the enzyme-linked plate to be coated overnight, then the supernatant was discarded. The plate was blocked with PBS containing 1% BSA for 2 hours, and washed with PBST (PBS containing 0.05% Tween 20). Biotin-labeled FcγR extracellular domain protein (Beijing Sino Biological Co., Ltd) of appropriate concentration was added and incubated at room temperature for 1 hour, then the supernatant was discarded and the plate was washed with PBST. The Biotin-labeled protein was detected by incubating with Streptavidin-HRP (BD BioSciences) at room temperature for 1 hour. The supernatant was removed, and the color-developing solution was added for color development for 20-40 minutes to determine the absorbance of 650 nm (A650).
Anti-human OX40 antibodies containing these new Fc mutation combinations are expressed and the binding property of the mutant antibody to FcγR are analyzed by Enzyme-linked immunosorbent assay (ELISA).

T1 sequence (P12314 16-292): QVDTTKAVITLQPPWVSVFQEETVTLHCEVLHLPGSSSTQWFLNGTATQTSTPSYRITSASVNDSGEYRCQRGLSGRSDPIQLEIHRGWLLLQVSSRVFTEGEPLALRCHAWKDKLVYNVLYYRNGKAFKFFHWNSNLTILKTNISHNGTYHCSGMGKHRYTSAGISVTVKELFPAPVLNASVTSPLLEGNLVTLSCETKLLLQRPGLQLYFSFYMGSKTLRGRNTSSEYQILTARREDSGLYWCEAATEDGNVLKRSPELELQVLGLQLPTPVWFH

B1: anti-human OX40 IgG2 antibody Mut_12 (P233F/V266L/S298L/L328W) (antibody)
heavy: QVQLQESGPGLVKPSGTLSLTCAVSGGSISSSIWWSWVRQPPGKGLEWIGEIHHSGNTNCNPSLKSRVTISIDKSKNQFSLKLTSVTAADTAVYYCARAGTGTTLDYWGQGTLVTVSSASTKGPSVFPLAPCSRSTSESTAALGCLVKDYFPEPVTVSWNSGALTSGVHTFPAVLQSSGLYSLSSVVTVPSSNFGTQTYTCNVDHKPSNTKVDKTVERKCCVECPPCPAPFVAGPSVFLFPPKPKDTLMISRTPEVTCVVVDLSHEDPEVQFNWYVDGVEVHNAKTKPREEQFNLTFRVVSVLTVVHQDWLNGKEYKCKVSNKGWPAPIEKTISKTKGQPREPQVYTLPPSREEMTKNQVSLTCLVKGFYPSDIAVEWESNGQPENNYKTTPPMLDSDGSFFLYSKLTVDKSRWQQGNVFSCSVMHEALHNHYTQKSLSLSPGK
light: EIVLTQSPGTLSLSPGERATLSCRASQSVSGDYLAWYQQKLGQAPRLLIYGASIRATGIPDRFSGSGSGTDFTLTISKLEPEDFAVYYCQQYGSSPLTFGGGTKVEIKRTVAAPSVFIFPPSDEQLKSGTASVVCLLNNFYPREAKVQWKVDNALQSGNSQESVTEQDSKDSTYSLSSTLTLSKADYEKHKVYACEVTHQGLSSPVTKSFNRGEC
notes: Substitutions in Eu numbering; entries include an unstated signal peptide
For B1, in the assay with FcγRI, the Absorbance value amounted to 0.21 A650 and the “Relative binding affinity RI/G1” value was 0.08 ratio. Moreover, in the assay with FcγRIIA^131H, the Absorbance value turned out to be 0.39 A650 and the “Relative binding affinity RIIAH/G1” value turned out to be 0.68 ratio. Besides, in the assay with FcγRIIA^131R, the Absorbance value amounted to 0.33 A650 and the “Relative binding affinity RIIAR/G1” value amounted to 1.26 ratio. In the assay with FcγRIIB [1], the Absorbance value was determined as 0.94 A650, the “Increased factor of RIIB binding compared with wild-type IgG2” value was found to be 12.6 fold and the “Relative binding affinity RIIB/G1” value is 1.25 ratio. Besides, in the assay with FcγRIIIA^158F, the Absorbance value came to 0.06 A650 and the “Relative binding affinity RIIIAF/G1” value amounted to 0.32 ratio. For the same molecule, in the assay with FcγRIIIA^158V, the Absorbance value is 0.06 A650 and the “Relative binding affinity RIIIAV/G1” value amounted to 0.06 ratio. In addition, the RIIB/RIIAR in the assay with FcγRIIB [2] worked out at 0.99 ratio.

B2: anti-human OX40 IgG2 antibody Mut_13 (V266L/S298L/L328W) (antibody, name in EU numbering)
heavy: QVQLQESGPGLVKPSGTLSLTCAVSGGSISSSIWWSWVRQPPGKGLEWIGEIHHSGNTNCNPSLKSRVTISIDKSKNQFSLKLTSVTAADTAVYYCARAGTGTTLDYWGQGTLVTVSSASTKGPSVFPLAPCSRSTSESTAALGCLVKDYFPEPVTVSWNSGALTSGVHTFPAVLQSSGLYSLSSVVTVPSSNFGTQTYTCNVDHKPSNTKVDKTVERKCCVECPPCPAPPVAGPSVFLFPPKPKDTLMISRTPEVTCVVVDLSHEDPEVQFNWYVDGVEVHNAKTKPREEQFNLTFRVVSVLTVVHQDWLNGKEYKCKVSNKGWPAPIEKTISKTKGQPREPQVYTLPPSREEMTKNQVSLTCLVKGFYPSDIAVEWESNGQPENNYKTTPPMLDSDGSFFLYSKLTVDKSRWQQGNVFSCSVMHEALHNHYTQKSLSLSPGK
light: EIVLTQSPGTLSLSPGERATLSCRASQSVSGDYLAWYQQKLGQAPRLLIYGASIRATGIPDRFSGSGSGTDFTLTISKLEPEDFAVYYCQQYGSSPLTFGGGTKVEIKRTVAAPSVFIFPPSDEQLKSGTASVVCLLNNFYPREAKVQWKVDNALQSGNSQESVTEQDSKDSTYSLSSTLTLSKADYEKHKVYACEVTHQGLSSPVTKSFNRGEC
notes: as for B1
Consider B2, for which, in the assay with FcγRI, the Absorbance value came to 0.18 A650 and the “Relative binding affinity RI/G1” value amounted to 0.07 ratio. Further, in the assay with FcγRIIA^131H, the Absorbance value came out at 0.33 A650 and the “Relative binding affinity RIIAH/G1” value came out at 0.58 ratio. Further, in the assay with FcγRIIA^131R, the Absorbance value is 0.26 A650 and the “Relative binding affinity RIIAR/G1” value amounted to 1.01 ratio. Besides, in the assay with FcγRIIB [1], the Absorbance value turned out to be 0.73 A650, the “Increased factor of RIIB binding compared with wild-type IgG2” value was 9.75 fold and the “Relative binding affinity RIIB/G1” value came out at 0.97 ratio. For the same molecule, in the assay with FcγRIIIA^158F, the Absorbance value amounted to 0.07 A650 and the “Relative binding affinity RIIIAF/G1” value was found to be 0.37 ratio. Further, in the assay with FcγRIIIA^158V, the Absorbance value worked out at 0.08 A650 and the “Relative binding affinity RIIIAV/G1” value came to 0.09 ratio. The RIIB/RIIAR in the assay with FcγRIIB [2] was 0.96 ratio.
